Data reported in patent US20180112219.

How the values were obtained:
[1] = tested on: 5' NS-TALEN (artificial (TALE-FokI)); assay: cleavage_in_vitro; conditions: pair with 3' HT-TALEN; 747 bp PCR template, 30 C
[2] = tested on: 5' NS-TALEN (in cells) (artificial (TALE-FokI)); assay: cell_activity; conditions: NS pair in HeLa-tat-III/LTR/d1EGFP cells; 2 of 23 clones mutated

“TCTCTGGTTAGACCAGATCT (double strand) [5' TALE binding target, HIV-1 LTR TAR]” was tested, and the activity [1] was 42 % cleavage and the activity [2] was 30 % GFP loss.
